# Assay results: patent publication US20220089699A1 (AstraZeneca / MedImmune, published 2022)
# T1: biotinylated ClfA001 (Staphylococcus aureus)
# T1 chain: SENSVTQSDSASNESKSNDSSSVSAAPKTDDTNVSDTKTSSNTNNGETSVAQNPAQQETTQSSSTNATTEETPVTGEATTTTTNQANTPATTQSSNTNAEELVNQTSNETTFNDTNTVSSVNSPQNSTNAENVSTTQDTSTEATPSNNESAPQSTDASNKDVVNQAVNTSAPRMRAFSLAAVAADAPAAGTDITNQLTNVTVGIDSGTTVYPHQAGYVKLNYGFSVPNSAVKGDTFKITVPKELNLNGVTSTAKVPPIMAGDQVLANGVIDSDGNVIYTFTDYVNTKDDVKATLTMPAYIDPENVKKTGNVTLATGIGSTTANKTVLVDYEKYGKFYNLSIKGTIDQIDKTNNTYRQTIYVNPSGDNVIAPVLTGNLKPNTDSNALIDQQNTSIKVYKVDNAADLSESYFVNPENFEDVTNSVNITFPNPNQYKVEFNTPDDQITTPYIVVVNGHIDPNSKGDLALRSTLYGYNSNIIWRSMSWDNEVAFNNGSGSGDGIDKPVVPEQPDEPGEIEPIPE
# B1: SAR114 (antibody, V domains shown)
# VH: QVQLQESGPGLVKPSETLSLTCTVSGGSIQNSYWSWIRQPPGKGLEWIGYLYSSGRTNYTPSLKSRVTISVDTSKNQFSLKLSSVTAADTAVYYCARTHLGGFHYGGGFWFDPWGQGTLVTVSS
# VL: DIQMTQSPSSLSASVGDRVTITCRASQSITSYLNWYQQKPGKAPKLLIYASSSLQSGVPSRFSGSGSGTDFTLTISSLQPEDFATYYCQESYSTPPTFGQGTKVEIK
# notes: also called anti-ClfA mAb SAR114
# Target: T1, biotinylated ClfA001
# Experiment: fibrinogen-binding inhibition ELISA: biotinylated ClfA001 (2 µg/ml) on a fibrinogen-coated plate, antibody titrated
binder,measurement,value
B1,IC50,3.02 µg/mL
